Values of other authors in PMC9528908.

Legend:
[1] = target: Asp66 (UniProt position 148, FTKKMDENAKK); experiment: stability
[2] = target: Glu66 (UniProt position 148, FTKKMEENAKK); experiment: stability

Row | Substance | pKa [1] | pKa [2]
1 | Staphylococcal nuclease (SNase) V66D variant (Staphylococcus aureus; V66D) | 8.45–9.03 | 
2 | Staphylococcal nuclease (SNase) V66E variant (Staphylococcus aureus; V66E) |  | 8.73–9.28
